For two substances, EC50 and ELISA virus binding (OD450) results are on record in patent publication US20150104459A1.

For assay [1], the target named is 23mer synthetic M2e peptide of A/Fort Worth/1/50 (influenza A virus A/Fort Worth/1/50 (H1N1)). As to the kind of experiment: ELISA, 23mer M2e peptide coated at 1 ug/ml.
The target in assay [2] is M2 protein of influenza A/Wisconsin/67/05 (H3N2), on inactivated whole virions (influenza A virus A/Wisconsin/67/05 (H3N2)). As to the kind of experiment: ELISA, positive control antibody on inactivated whole virions.

TCN-032 (8I10) (antibody), sequence (VH): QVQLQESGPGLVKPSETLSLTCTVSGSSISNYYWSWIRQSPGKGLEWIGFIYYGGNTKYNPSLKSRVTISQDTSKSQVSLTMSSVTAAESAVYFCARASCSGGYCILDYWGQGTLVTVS
TCN-032 (8I10) (antibody), sequence (VL): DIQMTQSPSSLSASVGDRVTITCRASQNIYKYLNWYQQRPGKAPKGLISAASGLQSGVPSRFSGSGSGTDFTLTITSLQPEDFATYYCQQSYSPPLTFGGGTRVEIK

In the case of “chimeric mouse V-region/human IgG1 kappa 14C2 antibody”, in assay [1], the EC50 came out at 0.01 µg/mL.

Take TCN-032 (8I10) (antibody): the ELISA virus binding (OD450) in assay [2] was 3.62 OD450.
